Experiments:
Hck = Hck (UniProt P08631); test: phosphorylation enrichment, bacterial display (enrichment ratio); higher = better substrate or ligand; peptides without Tyr show the background
c-Src = test: as above
Jak2 = Jak2 (UniProt O60674); test: as above
Fyn = Fyn (UniProt P06241); test: as above
EPHB2 = EPHB2 (UniProt P29323); test: as above
EPHB1 = EPHB1 (UniProt P54762); test: as above
AncSZ = test: as above
Fer (mouse) = test: as above
MERTK = MERTK (UniProt Q12866); test: as above
FGFR3 = FGFR3 (UniProt P22607); test: as above
Sequence of FGFR3 (P22607 whole entry, looked up): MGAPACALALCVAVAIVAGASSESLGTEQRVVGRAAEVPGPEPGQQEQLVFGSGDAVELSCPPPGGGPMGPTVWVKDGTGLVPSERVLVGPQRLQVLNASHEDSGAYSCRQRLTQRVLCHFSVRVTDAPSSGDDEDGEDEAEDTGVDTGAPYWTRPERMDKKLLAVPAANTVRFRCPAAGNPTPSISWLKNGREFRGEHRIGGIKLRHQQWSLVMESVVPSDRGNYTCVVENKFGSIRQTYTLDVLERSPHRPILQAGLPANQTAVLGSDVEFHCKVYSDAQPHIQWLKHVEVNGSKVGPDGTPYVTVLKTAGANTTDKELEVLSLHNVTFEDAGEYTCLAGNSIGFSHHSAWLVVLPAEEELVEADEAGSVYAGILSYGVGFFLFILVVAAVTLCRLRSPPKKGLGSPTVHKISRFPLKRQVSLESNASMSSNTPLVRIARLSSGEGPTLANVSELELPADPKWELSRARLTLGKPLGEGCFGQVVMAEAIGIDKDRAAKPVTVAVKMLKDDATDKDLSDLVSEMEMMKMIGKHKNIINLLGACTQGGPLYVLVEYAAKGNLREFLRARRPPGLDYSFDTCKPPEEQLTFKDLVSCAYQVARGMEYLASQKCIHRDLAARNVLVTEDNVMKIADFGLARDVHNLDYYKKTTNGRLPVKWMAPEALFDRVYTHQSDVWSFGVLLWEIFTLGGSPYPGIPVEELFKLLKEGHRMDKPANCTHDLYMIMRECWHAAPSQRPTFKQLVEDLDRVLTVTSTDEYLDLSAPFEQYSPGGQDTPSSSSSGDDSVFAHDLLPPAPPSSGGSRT

Fes = Fes (UniProt P07332); test: as above
c-Abl (mouse) = test: as above
FGFR1 = FGFR1 (UniProt P11362); test: as above
c-Src SH2 = test: SH2 binding enrichment of the phosphorylated peptide, bacterial display (enrichment ratio); higher = better substrate or ligand; peptides without Tyr show the background
SHP2-C SH2 = test: as above
Grb2 SH2 = Grb2 SH2 (UniProt P62993); test: as above
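Throughout, for SH2 binding enrichment of the phosphorylated peptide, bacterial display: peptide library displayed on the E. coli surface as eCPX fusions, selected cells deep-sequenced, score is each peptide's frequency after selection divided by its frequency in the input.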
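Throughout, for phosphorylation enrichment, bacterial display: 11-residue human phosphosite peptides and single-mutation variants displayed on the E. coli surface, counted by deep sequencing, each peptide's frequency after selection divided by its frequency in the unselected input library; frequency after pTyr selection over input frequency; kinase dosed for 20-30% of maximal phosphorylation in three min.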

Sequence of EPHB1 (P54762 whole entry, looked up): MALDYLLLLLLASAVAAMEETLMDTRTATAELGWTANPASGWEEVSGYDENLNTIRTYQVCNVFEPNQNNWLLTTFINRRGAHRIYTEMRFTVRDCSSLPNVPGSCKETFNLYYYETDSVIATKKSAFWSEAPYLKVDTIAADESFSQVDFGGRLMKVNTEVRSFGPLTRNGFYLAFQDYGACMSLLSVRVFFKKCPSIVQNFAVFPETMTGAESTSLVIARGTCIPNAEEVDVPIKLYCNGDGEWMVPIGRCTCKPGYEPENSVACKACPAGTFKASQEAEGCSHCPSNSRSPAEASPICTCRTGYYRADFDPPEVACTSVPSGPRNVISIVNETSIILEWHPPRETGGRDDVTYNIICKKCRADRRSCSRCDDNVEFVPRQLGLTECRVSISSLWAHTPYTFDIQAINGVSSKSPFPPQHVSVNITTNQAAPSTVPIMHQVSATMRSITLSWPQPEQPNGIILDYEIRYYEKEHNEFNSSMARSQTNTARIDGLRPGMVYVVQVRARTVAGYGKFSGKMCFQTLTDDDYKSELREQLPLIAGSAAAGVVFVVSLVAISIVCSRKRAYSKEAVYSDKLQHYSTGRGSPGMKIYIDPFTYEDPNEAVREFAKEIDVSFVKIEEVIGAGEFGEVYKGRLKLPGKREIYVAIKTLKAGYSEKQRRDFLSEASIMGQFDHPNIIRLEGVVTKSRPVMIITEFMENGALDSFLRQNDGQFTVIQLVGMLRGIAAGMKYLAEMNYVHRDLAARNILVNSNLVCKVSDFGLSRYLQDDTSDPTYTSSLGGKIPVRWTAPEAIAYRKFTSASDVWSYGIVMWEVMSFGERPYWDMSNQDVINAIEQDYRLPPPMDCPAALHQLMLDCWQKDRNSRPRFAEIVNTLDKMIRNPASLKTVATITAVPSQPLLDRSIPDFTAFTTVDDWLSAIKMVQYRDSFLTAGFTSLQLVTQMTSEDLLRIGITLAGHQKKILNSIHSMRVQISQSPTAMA
Sequence of Jak2 (O60674 whole entry, looked up): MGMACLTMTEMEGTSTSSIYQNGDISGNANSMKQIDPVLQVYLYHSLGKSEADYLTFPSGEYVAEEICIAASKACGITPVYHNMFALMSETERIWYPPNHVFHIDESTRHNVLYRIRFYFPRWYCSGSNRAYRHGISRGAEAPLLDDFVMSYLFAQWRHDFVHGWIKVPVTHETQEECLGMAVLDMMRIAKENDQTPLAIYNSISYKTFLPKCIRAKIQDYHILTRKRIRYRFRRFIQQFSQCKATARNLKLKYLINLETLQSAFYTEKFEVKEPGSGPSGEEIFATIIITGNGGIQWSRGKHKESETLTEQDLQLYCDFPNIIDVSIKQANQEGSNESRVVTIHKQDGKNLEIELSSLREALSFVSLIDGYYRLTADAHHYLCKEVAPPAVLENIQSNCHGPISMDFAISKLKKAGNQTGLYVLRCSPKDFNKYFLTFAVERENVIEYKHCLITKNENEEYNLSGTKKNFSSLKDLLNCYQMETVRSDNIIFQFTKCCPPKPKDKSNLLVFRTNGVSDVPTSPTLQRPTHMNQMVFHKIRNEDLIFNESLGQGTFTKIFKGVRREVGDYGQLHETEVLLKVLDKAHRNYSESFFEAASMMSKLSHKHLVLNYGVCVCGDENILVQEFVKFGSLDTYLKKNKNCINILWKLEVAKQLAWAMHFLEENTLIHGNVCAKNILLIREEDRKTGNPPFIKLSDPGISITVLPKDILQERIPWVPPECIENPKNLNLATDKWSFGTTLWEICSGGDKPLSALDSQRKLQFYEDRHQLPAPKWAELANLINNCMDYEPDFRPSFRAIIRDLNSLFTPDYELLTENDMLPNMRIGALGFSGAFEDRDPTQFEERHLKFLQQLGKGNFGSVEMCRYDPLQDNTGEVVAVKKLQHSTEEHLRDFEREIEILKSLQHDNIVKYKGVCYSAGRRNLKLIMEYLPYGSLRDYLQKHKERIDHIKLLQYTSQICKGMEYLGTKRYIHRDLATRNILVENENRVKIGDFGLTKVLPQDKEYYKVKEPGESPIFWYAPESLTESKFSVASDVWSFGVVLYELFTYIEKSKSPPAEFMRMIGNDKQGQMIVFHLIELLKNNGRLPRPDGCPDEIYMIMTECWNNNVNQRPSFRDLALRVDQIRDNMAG
Sequence of MERTK (Q12866 whole entry, looked up): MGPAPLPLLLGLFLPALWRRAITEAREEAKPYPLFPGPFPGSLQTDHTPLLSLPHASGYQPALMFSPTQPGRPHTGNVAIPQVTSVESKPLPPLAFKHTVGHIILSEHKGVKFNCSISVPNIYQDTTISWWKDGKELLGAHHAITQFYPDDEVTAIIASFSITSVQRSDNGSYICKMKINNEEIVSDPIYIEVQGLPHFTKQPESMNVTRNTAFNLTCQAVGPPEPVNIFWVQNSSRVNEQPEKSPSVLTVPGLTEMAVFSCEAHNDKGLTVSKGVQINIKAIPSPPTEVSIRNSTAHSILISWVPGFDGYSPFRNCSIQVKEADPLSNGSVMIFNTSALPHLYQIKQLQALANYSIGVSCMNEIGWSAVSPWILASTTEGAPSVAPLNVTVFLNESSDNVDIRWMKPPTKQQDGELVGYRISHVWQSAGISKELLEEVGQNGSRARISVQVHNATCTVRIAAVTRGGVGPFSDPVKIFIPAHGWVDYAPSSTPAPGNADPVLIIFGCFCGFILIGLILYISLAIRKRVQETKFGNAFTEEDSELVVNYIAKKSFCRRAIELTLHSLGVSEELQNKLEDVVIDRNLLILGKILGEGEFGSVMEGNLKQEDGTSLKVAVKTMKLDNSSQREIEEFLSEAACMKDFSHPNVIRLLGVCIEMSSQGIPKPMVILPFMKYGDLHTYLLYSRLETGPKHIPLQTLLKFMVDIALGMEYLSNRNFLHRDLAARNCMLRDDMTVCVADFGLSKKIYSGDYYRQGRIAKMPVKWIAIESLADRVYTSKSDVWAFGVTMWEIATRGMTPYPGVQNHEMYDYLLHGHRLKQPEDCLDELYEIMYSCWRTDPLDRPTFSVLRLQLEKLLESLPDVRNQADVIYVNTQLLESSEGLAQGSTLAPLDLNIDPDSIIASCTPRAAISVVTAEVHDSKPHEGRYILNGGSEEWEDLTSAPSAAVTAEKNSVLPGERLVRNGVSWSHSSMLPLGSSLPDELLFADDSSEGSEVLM
Sequence of Hck (P08631 whole entry, looked up): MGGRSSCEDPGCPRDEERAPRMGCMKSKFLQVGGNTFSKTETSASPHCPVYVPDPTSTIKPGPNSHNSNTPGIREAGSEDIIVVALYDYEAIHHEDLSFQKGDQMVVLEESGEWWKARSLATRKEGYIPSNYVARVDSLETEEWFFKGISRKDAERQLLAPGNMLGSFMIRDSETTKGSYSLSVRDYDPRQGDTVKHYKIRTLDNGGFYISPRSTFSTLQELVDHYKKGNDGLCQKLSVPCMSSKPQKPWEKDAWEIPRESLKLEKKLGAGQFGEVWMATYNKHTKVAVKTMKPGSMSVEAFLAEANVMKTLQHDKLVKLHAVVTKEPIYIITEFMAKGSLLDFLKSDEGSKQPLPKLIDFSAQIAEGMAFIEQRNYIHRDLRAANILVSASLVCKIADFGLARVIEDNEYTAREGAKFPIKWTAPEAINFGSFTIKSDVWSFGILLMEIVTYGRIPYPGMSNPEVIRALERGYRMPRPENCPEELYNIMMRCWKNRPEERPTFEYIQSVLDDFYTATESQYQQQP
Sequence of Fyn (P06241 whole entry, looked up): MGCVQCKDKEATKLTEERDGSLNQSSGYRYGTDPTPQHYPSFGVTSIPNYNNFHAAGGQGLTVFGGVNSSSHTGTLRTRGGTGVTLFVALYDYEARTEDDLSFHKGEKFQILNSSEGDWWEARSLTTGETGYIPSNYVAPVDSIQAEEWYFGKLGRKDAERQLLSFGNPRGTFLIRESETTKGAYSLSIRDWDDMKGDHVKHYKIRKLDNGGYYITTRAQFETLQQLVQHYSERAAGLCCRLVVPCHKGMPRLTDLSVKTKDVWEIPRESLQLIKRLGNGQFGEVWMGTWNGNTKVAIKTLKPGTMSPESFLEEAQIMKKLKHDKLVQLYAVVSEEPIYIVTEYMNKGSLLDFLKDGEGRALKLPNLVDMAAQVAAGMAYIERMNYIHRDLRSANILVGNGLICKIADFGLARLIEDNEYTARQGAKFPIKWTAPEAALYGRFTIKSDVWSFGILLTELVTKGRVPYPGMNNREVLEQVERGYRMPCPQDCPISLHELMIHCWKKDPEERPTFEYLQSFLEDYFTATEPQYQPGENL

Row | SH2 binding enrichment (c-Src SH2) | SH2 binding enrichment (SHP2-C SH2) | SH2 binding enrichment (Grb2 SH2) | Sequence | phosphorylation enrichment (Hck) | phosphorylation enrichment (c-Src) | phosphorylation enrichment (Jak2) | phosphorylation enrichment (Fyn) | phosphorylation enrichment (EPHB2) | phosphorylation enrichment (EPHB1) | phosphorylation enrichment (AncSZ) | phosphorylation enrichment (Fer (mouse)) | phosphorylation enrichment (MERTK) | phosphorylation enrichment (FGFR3) | phosphorylation enrichment (Fes) | phosphorylation enrichment (c-Abl (mouse)) | phosphorylation enrichment (FGFR1)
1 | 0.491 | 0.844 | 0.876 | RASSSYRETPS [SORBS1_Y79] | 0.502 | 0.775 | 1.49 | 0.655 | 0.337 | 0.361 | 0.681 | 0.513 | 0.644 | 0.68 | 0.659 | 0.757 | 0.611
2 | 0.507 | 0.97 | 0.92 | RDIHDYIKHLG [UNC13C_Y308] | 0.519 | 0.487 | 0.614 | 0.576 | 0.985 | 0.597 | 0.9 | 0.582 | 0.46 | 0.474 | 0.696 | 0.373 | 0.449
3 | 0.485 | 0.691 | 0.824 | RDSQIYAVDYE [MRPS34_Y34_L33I] | 4.23 | 4.24 | 0.977 | 7.43 | 1.94 | 2.44 | 1.86 | 1.89 | 4.3 | 1.37 | 1.56 | 0.684 | 1.21
4 | 0.621 | 0.541 | 2.37 | RDVEQYVNNVN [PCDH19_Y1097_L1094V] | 0.645 | 0.398 | 0.855 | 0.577 | 0.594 | 0.545 | 0.928 | 0.454 | 0.522 | 0.701 | 0.93 | 1.02 | 0.544
5 | 0.465 | 0.589 | 0.923 | REGKIYEFNQV [ZNF665_Y162_H157R_YF] | 1.24 | 2.08 | 0.432 | 4.78 | 0.795 | 0.356 | 0.795 | 14.3 | 2.64 | 0.886 | 0.758 | 0.718 | 0.46
6 | 1.56 | 0.611 | 0.84 | REGKIYEYNQV [ZNF665_Y162_H157R] | 1.12 | 1.19 | 0.494 | 1.41 | 0.929 | 0.716 | 0.799 | 15.9 | 3.19 | 0.898 | 0.788 | 1.07 | 0.707
7 | 0.552 | 1.43 | 1.45 | RFVFFYSFLLK [PTEN_Y178_YF] | 0.509 | 1.05 | 1.64 | 0.623 | 0.502 | 0.748 | 1.44 | 0.612 | 0.539 | 0.9 | 1.65 | 1.45 | 0.731

Second part, the sequence before the results:

Row | Sequence | SH2 binding enrichment (c-Src SH2) | SH2 binding enrichment (SHP2-C SH2) | SH2 binding enrichment (Grb2 SH2) | phosphorylation enrichment (Hck) | phosphorylation enrichment (c-Src) | phosphorylation enrichment (Jak2) | phosphorylation enrichment (Fyn) | phosphorylation enrichment (EPHB2) | phosphorylation enrichment (EPHB1) | phosphorylation enrichment (AncSZ) | phosphorylation enrichment (Fer (mouse)) | phosphorylation enrichment (MERTK) | phosphorylation enrichment (FGFR3) | phosphorylation enrichment (Fes) | phosphorylation enrichment (c-Abl (mouse)) | phosphorylation enrichment (FGFR1)
8 | QVMDGYPIPIG [MMP14_Y353_M355I] | 0.5 | 0.587 | 0.826 | 0.566 | 0.3 | 0.554 | 0.592 | 0.755 | 0.596 | 0.686 | 0.56 | 0.482 | 0.572 | 0.715 | 0.46 | 0.406
9 | QYNIQYSSSAA [ERBB2IP_Y981] | 0.59 | 0.679 | 0.978 | 0.47 | 0.749 | 0.68 | 0.702 | 0.583 | 0.335 | 0.913 | 0.606 | 0.452 | 0.648 | 0.964 | 0.408 | 0.693
10 | RAEIVYKSPVV [MAPT_Y711_G706R] | 0.452 | 0.765 | 0.869 | 0.674 | 0.723 | 0.779 | 0.482 | 0.507 | 0.663 | 0.995 | 0.363 | 0.415 | 0.857 | 1.46 | 16.4 | 0.783
11 | RAIGFYSATSK [FAM120A_Y328_YF] | 0.886 | 0.95 | 0.989 | 0.774 | 0.59 | 0.889 | 0.685 | 0.81 | 0.46 | 1.51 | 0.911 | 1.03 | 0.805 | 1.03 | 1.26 | 0.545
12 | RALLNYIASKY [GSTA3_Y74_I71L] | 0.768 | 0.917 | 1.22 | 0.553 | 0.381 | 0.8 | 0.678 | 0.521 | 0.551 | 0.611 | 0.47 | 0.509 | 0.798 | 0.959 | 0.578 | 0.343
13 | RFGRKYKKVRF [F8_Y442_I438F] | 0.374 | 0.564 | 0.724 | 0.674 | 0.988 | 0.884 | 0.82 | 0.551 | 0.572 | 0.708 | 0.619 | 1.04 | 0.651 | 0.841 | 0.806 | 0.653
14 | RFLERYIFNRE [HLA-DPB1_Y57_YF] | 1.46 | 1.09 | 1.54 | 0.44 | 0.432 | 0.748 | 0.311 | 0.363 | 0.324 | 0.786 | 0.356 | 0.409 | 0.543 | 0.914 | 0.627 | 0.329
15 | RFLRGYEQDAY [HLA-A_Y137_R138E] | 0.981 | 0.87 | 1.03 | 0.42 | 0.407 | 0.807 | 0.525 | 0.448 | 0.358 | 0.71 | 0.289 | 0.304 | 0.57 | 0.969 | 0.478 | 0.6
16 | RFLRGYQQDAY [HLA-A_Y137_R138Q] | 0.43 | 0.713 | 0.631 | 0.404 | 0.715 | 0.803 | 0.349 | 0.535 | 0.519 | 0.894 | 0.64 | 0.665 | 0.633 | 0.81 | 0.843 | 0.548
17 | RFLRGYRQHAF [HLA-A_Y137_D140H_YF] | 0.495 | 0.284 | 0.636 | 0.581 | 0.805 | 0.933 | 0.648 | 0.599 | 0.64 | 0.606 | 0.598 | 0.706 | 0.701 | 1.34 | 1.02 | 0.564

Source: the supplement of paper PMC10065799, “High-throughput profiling of sequence recognition by tyrosine kinases and SH2 domains using bacterial peptide display” (eLife, 2023)
